Assay results taken from publication PMC8394153, “Novel Glutamate–Putrescine Ligase Activity in Haloferax mediterranei: A New Function for glnA-2 Gene” (Biomolecules, 2021).

Biological target: the molecule itself
Test: SEC; HiPrep 16/60 Sephacryl S-300 High-Resolution column; eluted in 20 mM Tris-HCl, 2 M NaCl, 10 mM MgCl2, pH 7.5, 0.5 mL/min, room temperature; standard proteins 12.5 to 678 kDa; oligomer size from 667 kDa against a 55 kDa monomer (SDS-PAGE)

B1: recombinant GlnA-2 protein (HFX_1688) from Haloferax mediterranei (enzyme, UniProt I3R584 1-446, looked up)
chain: MSDTSTVKSQCEDQNIDLIRLLYVTPSGVIQANTVDVSEVDAAVESGVTLSEVIQVYDAFACRNRNSRFDAVGEVHLCPDPETFRPLPYADRAGAMLCNIRTLDGEPWDVDSRSSLQSVERDLRAKGLSPQVAFESEFSLFSRDGDGKINRGDEAGAYRTESIRGTHDAILHIVDALKAQGIDVKKYHPEFSPGKHEIVTGHHTGLEAADEHLLLRETVKSVAEQDGYQATFLPKPFDDGTNGCHINVSLWNGENQFFDPNHGDISETARQFIAGVLDHAPAVLALTAPTVNSYSRLQPRHGAAGYICWGWLNREALIRVPAPAQGREADSTRIEFRGADNTANPYLGLIGLLAAGNDGIERELEPPEPVSVDPCDLTDAQRTAKGIKRLPQTLGEALDALETNEVLREALGPDLFDAYVEVKRNHWKLFTESAGAWQRERLRNLY
notes: GlnA-2 of Haloferax mediterranei R4 (ATCC 33500T), locus HFX_1688, annotated as glutamine synthetase; monomer 55 kDa by SDS-PAGE; also called glutamate–putrescine ligase; HFX_01688; source: heterologous expression in E. coli, purified (gel filtration); copies: 12
**Q.** For B1, which “stoichiometry N” value is on record?
**A.** 12
